Target: Human calmodulin (human, UniProt P0DP23 1-149)
Experiment: ITC

B1: Human NaV1.9 C-tail (residues 1618 to 1766) (domain or fragment)
chain: LGEDDFDIFYEVWEKFDPEATQFIKYSALSDFADALPEPLRVAKPNKYQFLVMDLPMVSEDRLHCMDILFAFTARVLGGSDGLDSMKAMMEEKFMEANPLKKLYEPIVTTTKRKEEERGAAIIQKAFRKYMMKVTKGDQGDQNDLENGP
Work on B1 yielded a Kd of ~214 µM.

— PMC12118636 (Science Advances, 2025)
